One block for each compound: values may come before it.
What was measured:
α2AAR F^7.39N mutation = tested on: α2AAR F^7.39N mutation; parameters: method as in PMID 31801060; settings: cited from earlier work
α2AAR S^5.46A = settings: cited from earlier work
hybrid G protein Gαqi = hybrid G protein Gαqi (UniProt P50148)
hybrid G protein Gαqs = hybrid G protein Gαqs (UniProt P50148)

Compound: NC[C@H](O)c1ccc(O)c(O)c1 [Norepi, norepinephrine]
activity of Norepi at F^7.39N mutant, in words (α2AAR F^7.39N mutation): completely abolishes the activity

Compound: CNC[C@H](O)c1ccc(O)c(O)c1 [epinephrine]
potency to inhibit forskolin-stimulated cAMP accumulation at S^5.46A, in words (α2AAR S^5.46A): markedly reduced the potency

IP accumulation (IP-One HTRF) in HEK293T cotransfected with receptor and Gαqi; Gi coupling activity, decrease against wild-type α2AAR (hybrid G protein Gαqi): 3 fold
IP accumulation (IP-One HTRF) in HEK293T cotransfected with receptor and Gαqs; Gs activity, decrease against wild-type α2AAR (hybrid G protein Gαqs): 10 fold
Compound: chimeric receptor α2AAR-β2-TM5 (from UniProt P08913 1-232; P07550 221-232; P08913 245-465)

IP accumulation (IP-One HTRF) in HEK293T cotransfected with receptor and Gαqi; Gi coupling activity, increase against wild-type β2AR (hybrid G protein Gαqi): > 100 fold
IP accumulation (IP-One HTRF) in HEK293T cotransfected with receptor and Gαqs; Gs coupling activity, increase against wild-type β2AR (hybrid G protein Gαqs): > 100 fold
Compound: chimeric receptor β2AR-α2A-TM5 (from UniProt P07550 1-220; P08913 233-244; P07550 233-413)
